Results taken from patent US7176008 (MERCK, dated 2007).

Tests used:
[1] = target: T1, human carboxypeptidase B (human, UniProt P15086 111-417)
T1 construct: also called CPB
T1 sequence (looked up): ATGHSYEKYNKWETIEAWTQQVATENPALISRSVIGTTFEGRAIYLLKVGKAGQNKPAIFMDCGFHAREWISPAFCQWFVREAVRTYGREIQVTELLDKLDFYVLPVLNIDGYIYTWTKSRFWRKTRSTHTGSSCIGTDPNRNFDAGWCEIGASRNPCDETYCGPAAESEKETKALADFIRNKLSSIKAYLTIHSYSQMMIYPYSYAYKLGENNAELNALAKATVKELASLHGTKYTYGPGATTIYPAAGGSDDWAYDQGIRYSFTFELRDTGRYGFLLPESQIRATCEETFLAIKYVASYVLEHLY

[2] = target: T2, activated thrombin-activatable fibrinolysis inhibitor (human TAFIa) (human, UniProt Q96IY4 115-423)
T2 construct: Purified from human serum in the presence of 5 mM epsilon-aminocaproic acid; also called carboxypeptidase U
T2 sequence (looked up): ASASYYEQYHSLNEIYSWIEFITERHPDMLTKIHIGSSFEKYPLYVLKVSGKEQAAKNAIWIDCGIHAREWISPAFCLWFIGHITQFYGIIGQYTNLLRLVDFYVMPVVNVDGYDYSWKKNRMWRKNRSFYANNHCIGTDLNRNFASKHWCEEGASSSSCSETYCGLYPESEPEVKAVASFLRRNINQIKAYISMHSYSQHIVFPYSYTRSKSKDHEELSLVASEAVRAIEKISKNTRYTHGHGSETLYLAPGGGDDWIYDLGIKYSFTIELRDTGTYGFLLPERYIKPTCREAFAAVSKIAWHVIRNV

binding result [1]: binds
binding result [2]: binds
B1: potato carboxypeptidase inhibitor (peptide, UniProt P01075 1-39, looked up)
chain: QQHADPICNKPCKTHDDCSGAWFCQACWNSARTCGPYVG
notes: also called PCI
